Data published in patent US20110217317A1 (published 2011).

T1: Rhesus D antigen (human, UniProt Q02161 2-417)
T1 construct: whole, on cells; Presented on RhD-positive erythrocytes in all assays; also called RhD; RhD antigen
T1 sequence (looked up): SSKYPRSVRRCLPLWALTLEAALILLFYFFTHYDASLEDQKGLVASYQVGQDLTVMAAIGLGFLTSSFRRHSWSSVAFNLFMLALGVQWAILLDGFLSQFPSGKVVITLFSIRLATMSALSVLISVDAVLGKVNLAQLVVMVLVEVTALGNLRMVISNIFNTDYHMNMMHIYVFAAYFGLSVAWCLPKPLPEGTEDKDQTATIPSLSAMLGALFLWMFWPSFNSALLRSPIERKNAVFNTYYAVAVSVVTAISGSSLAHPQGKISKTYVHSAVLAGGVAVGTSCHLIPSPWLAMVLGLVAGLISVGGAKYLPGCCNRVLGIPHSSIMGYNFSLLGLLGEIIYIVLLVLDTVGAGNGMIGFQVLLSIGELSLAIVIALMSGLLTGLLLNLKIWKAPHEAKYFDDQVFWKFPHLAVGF


Molecular target: T1, Rhesus D antigen
Test: Fab screening on red blood cells (agglutination/FACS)

binding result | Binder
binds | RhD324.231F07 (Fab, V domains shown, Tested as Fab (periplasmic extract)) VH: EVQLVESGGGLVQPGRSLRLSCVASGFTFSSYWMHWVRQVPGKGLVWVSRINVDGKSTSYADSVKGRFTISRDNAKNTLYLQMNSLRAEDTAVYYCARDPRRFLEWARYGMDVWGRGTTVTVSS VL: not shown
binds | RhD323.229B07 (Fab, V domains shown, Tested as Fab (periplasmic extract)) VH: QVQLVESGGGVVQPGRSLRLSCAASGFTFSSYGMHWVRQAPGKGLEWVAVIWYDGSNKYYADSVKGRFTISRDNSKNTLYLQMNSLRAEDTAVYYCARDWVTRSSNWYRNYYYYGMDVWGQGTTVTVSS VL: DIQMTQSPSSLSASVGDRVTITCRASQSISSYLNWYQQKPGKAPKLLIYAASTLQSGVPSRFSGSGSGTDFTLTISSLQPEDFATYYCQQYYRTPTWTFGQGTKVEIKR

Continued, binder first:

Binder | binding result
RhD163.119A02 (Fab, V domains shown, Tested as Fab (periplasmic extract)) VH: QVQLQESGPGLVKPSETLSLTCTVSGGSISSYYWSWVRQPPGKGLEWIGYIYYSGSTNYNPSLKSRVTIALDTSKNQFSLKLRSVTAADTAVYFCTRDWRQYGSAIRGSRYYYGMDVWGQGTTVTVSS VL: EIVLTQSPGTLSLSPGERATLSCRASQNPRRNFLAWYQQKPGQAPRLLIYAASTRATGIPDRFSGSGSGTDFTLTIDRLEPEDSAVYYCQVYGSSPLYTFGQGTKVEMKR | binds
RhD162.119G12 (Fab, V domains shown, Tested as Fab (periplasmic extract)) VH: QVQLVESGGGLVKPGGSLRLSCAASGFGFSAYSMNWVRQAPGKGLEWVSSITSTTTYYADSVKGRFSISRDNAKSTLYLRMNSLRAEDTAVYYCVREIAFRGSTYSRWSYYFDFWGQGTLVTVSS VL: DIQLTQSPSSVSASVGDSVTITCRASQAVSGWVAWYQQKPGKAPKLLIFGLSNLEDGVPSRFSGSGSATDFTLTITGLQPEDLATYYCLQANRFPLSFGGGTRVEIKR | binds
RhD189.181E07 (Fab, V domains shown, Tested as Fab (periplasmic extract)) VH: QVQLVESGGGVVQPGRSLRLSCAASGFTFSSYGMHWVRQAPGKGLEWVAVIWYDGSNKYYADSVKGRFTISRDNSKNTLYLQMNSLRAEDTAVYYCARDMVTMVRGAYRNYYYYGMDVWGKGTTVTVSS VL: not shown | binds
